Here are results for 2 molecules from PMC4407695 (Journal of molecular biology, 2014).

First the molecules themselves.
B1: NHERF1 (natural protein, UniProt O14745 1-358, looked up)
chain: MSADAAAGAPLPRLCCLEKGPNGYGFHLHGEKGKLGQYIRLVEPGSPAEKAGLLAGDRLVEVNGENVEKETHQQVVSRIRAALNAVRLLVVDPETDEQLQKLGVQVREELLRAQEAPGQAEPPAAAEVQGAGNENEPREADKSHPEQRELRPRLCTMKKGPSGYGFNLHSDKSKPGQFIRSVDPDSPAEASGLRAQDRIVEVNGVCMEGKQHGDVVSAIRAGGDETKLLVVDRETDEFFKKCRVIPSQEHLNGPLPVPFTNGEIQKENSREALAEAALESPRPALVRSASSDTSEELNSQDSPPKQDSTAPSSTSSSDPILDFNISLAMAKERAHQKRSSKRAPQMDWSKKNELFSNL
B2: FERM domain of Merlin (domain or fragment, human, UniProt P35240 22-311, looked up)
chain: FTVRIVTMDAEMEFNCEMKWKGKDLFDLVCRTLGLRETWFFGLQYTIKDTVAWLKMDKKVLDHDVSKEEPVTFHFLAKFYPENAEEELVQEITQHLFFLQVKKQILDEKIYCPPEASVLLASYAVQAKYGDYDPSVHKRGFLAQEELLPKRVINLYQMTPEMWEERITAWYAEHRGRARDEAEMEYLKIAQDLEMYGVNYFAIRNKKGTELLLGVDALGLHIYDPENRLTPKISFPWNEIRNISYSDKEFTIKPLDKKIDVFKFNSSKLRVNKLILQLCIGNHDLFMRRR

One experiment concerns the target FERM domain of Ezrin (UniProt P15311 2-296). As to the kind of experiment: ITC. In general terms: ITC needs no label: the signal is the heat of the interaction.
The experiment “FERM domain of Merlin” addresses B2. Kind of experiment: ITC.
In experiment [1] the target is T1, wild-type full-length Merlin(wt) (human, UniProt P35240 1-595).
T1 sequence (looked up): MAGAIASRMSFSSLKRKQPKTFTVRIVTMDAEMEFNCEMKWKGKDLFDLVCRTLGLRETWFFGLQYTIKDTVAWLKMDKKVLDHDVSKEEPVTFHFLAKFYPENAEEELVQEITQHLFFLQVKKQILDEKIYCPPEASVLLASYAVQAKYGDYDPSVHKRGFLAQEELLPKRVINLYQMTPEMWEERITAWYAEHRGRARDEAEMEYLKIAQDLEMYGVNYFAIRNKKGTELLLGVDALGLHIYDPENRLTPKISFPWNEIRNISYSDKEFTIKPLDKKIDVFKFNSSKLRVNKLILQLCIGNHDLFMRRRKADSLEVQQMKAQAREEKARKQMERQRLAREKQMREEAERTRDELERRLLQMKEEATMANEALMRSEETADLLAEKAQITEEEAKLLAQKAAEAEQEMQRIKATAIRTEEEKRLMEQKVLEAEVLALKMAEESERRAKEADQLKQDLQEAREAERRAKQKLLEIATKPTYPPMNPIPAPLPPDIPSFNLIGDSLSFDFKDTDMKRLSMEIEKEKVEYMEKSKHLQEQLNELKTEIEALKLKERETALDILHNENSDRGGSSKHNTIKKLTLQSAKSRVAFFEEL
Kind of experiment: ITC.

Experiment [2] addresses T2, Merlin(S518D) (human, UniProt P35240 1-595, S518D).
T2 sequence (looked up): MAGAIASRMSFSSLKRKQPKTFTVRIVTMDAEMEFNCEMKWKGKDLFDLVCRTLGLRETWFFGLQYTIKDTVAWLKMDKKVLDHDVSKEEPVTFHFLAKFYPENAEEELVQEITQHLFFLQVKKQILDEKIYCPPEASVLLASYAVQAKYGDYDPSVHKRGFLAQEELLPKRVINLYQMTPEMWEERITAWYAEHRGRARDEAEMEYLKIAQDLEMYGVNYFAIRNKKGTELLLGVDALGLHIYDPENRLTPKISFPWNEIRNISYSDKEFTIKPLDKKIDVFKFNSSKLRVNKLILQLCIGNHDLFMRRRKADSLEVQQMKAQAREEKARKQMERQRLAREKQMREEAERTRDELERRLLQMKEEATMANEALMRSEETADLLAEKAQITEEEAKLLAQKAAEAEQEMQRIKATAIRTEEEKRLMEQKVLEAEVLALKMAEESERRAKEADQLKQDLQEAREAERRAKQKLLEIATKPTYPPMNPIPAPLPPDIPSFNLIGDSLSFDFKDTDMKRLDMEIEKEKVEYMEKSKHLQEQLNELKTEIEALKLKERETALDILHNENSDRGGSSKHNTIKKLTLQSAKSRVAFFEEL
Kind of experiment: ITC.

Experiment [3] has as its target T1, wild-type full-length Merlin(wt). As to the kind of experiment: SPR. Background: Surface plasmon resonance follows binding to a sensor surface in real time, without labels.
The target of experiment [4] is T2, Merlin(S518D). Kind of experiment: SPR.
The target in experiment [5] is B1. Kind of experiment: ITC.
The target of experiment [6] is B1. Kind of experiment: SPR.

FERM domain of Ezrin, sequence (P15311 2-296): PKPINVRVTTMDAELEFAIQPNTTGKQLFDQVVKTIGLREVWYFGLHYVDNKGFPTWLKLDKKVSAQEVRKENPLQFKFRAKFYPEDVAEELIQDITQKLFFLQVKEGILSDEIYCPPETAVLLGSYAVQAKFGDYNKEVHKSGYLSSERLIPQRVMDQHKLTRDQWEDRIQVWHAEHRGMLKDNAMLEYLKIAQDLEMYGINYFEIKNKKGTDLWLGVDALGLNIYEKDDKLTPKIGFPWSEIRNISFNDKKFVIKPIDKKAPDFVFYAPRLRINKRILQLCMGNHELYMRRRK

Take B1: the stoichiometry N (in general, the number of molecules, sites or subunits per partner or assembly) with FERM domain of Ezrin was 1.06; in the experiment with FERM domain of Merlin, 0.93; in experiment [1], 0.37; with Merlin(S518D) [2], 0.39. In addition, the Kd (usually the constant that tells how readily two partners part at equilibrium) in experiment [1] came out at 855 ± 160 nM; with Merlin(S518D) [2], 1570 ± 322 nM; in experiment [3], 956 ± 70 nM; with Merlin(S518D) [4] it was 1240 ± 220 nM.
For B2, the figures for the Kd in the experiment with NHERF1 [5] and with NHERF1 [6] were 649 ± 18 nM and 459 ± 38 nM, respectively.
